Test results taken from PMC7590123.

What was measured:
[1] = system: T1, PhaD-His6 (Pseudomonas putida KT2440), ORF:4b0e7042; experiment: EMSA
T1 sequence: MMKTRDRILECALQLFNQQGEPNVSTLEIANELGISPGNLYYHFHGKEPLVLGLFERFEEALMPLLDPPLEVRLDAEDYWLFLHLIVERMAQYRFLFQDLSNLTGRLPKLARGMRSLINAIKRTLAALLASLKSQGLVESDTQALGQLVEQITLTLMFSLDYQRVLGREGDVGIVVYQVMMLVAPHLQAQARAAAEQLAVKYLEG

[2] = biological target: T18‐PhaC1 (bacterial two‐hybrid fusion, pUT18C‐phaC1) (P. putida); experiment: two-hybrid

Row | Substance | binding [1] | β‐galactosidase activity [2] [U/mg CDW]
1 | CCGTACACTTCCGAGGATGGGCGCACCTCAGGCAGCATCTGCCGCGGGATGCCCAGGATTTCCAGCAGCTTGTCGTCCCACTGCAGGCTGTGGATGTTGAACATCAGCGTGCGCGAGGCATTGGTGTAGTCGGTGACGTGAACCTTCCCACCCGTAAGCTTCCAGATCAGCCAGGTG (double strand) [glpK coding fragment] | no binding | 
2 | CGCGGATCCATGCTGTGTACCTCATGCTCATGAGTGGTGGAAAACCGCCCATGGAGGCTGGGCTTGAGCATTAAGGTAGGGAAGAAAATTAGAAACCTCACCCTAAGGTCGTCGTTGTCGCATCTATATACCGCAAGCCCCGTTGACCACAGCGCTAGCGTCGCAGGCTTCACCTCACGGACATCGACGCCATGACTGCTGTAGCAAACCCACCCAGGCTGACGTTCAAGCAAAGCGTGGCAGGAATTCCGG (double strand) [PI promoter probe (phaI upstream, 230 bp)] | binds | 
3 | T18‐PhaC1 (bacterial two‐hybrid fusion, pUT18C‐phaC1) (natural protein) |  | 1730
